Assay results published in patent US11643467 (dated 2023).

Legend:
Test in all cases: ELISA
FGFR1-Fc = molecular target: T1, FGFR1-Fc (human, UniProt P11362)
T1 chain: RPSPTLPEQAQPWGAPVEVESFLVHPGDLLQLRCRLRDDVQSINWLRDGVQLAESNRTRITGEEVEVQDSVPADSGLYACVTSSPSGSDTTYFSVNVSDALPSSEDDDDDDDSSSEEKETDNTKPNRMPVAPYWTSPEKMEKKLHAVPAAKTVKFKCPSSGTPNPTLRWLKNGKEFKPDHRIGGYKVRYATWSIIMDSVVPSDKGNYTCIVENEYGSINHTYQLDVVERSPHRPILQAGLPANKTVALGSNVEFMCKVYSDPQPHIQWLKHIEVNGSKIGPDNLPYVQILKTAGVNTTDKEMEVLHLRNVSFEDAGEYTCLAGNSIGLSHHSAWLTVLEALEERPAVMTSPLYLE

FGFR3-Fc = molecular target: T2, FGFR3-Fc (human, UniProt P22607)
T2 chain: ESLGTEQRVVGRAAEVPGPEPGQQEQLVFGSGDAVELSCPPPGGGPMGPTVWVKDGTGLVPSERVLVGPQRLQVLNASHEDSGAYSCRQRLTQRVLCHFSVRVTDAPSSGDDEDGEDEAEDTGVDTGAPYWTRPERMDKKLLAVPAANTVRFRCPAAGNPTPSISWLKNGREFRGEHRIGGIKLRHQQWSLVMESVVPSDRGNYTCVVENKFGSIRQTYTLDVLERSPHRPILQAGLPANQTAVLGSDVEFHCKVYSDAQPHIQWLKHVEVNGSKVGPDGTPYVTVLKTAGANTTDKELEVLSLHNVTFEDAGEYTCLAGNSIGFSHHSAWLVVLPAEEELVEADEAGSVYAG

FGFR2-Fc = FGFR2-Fc (human, UniProt P21802)
Sequence of FGFR2-Fc (P21802 22-377): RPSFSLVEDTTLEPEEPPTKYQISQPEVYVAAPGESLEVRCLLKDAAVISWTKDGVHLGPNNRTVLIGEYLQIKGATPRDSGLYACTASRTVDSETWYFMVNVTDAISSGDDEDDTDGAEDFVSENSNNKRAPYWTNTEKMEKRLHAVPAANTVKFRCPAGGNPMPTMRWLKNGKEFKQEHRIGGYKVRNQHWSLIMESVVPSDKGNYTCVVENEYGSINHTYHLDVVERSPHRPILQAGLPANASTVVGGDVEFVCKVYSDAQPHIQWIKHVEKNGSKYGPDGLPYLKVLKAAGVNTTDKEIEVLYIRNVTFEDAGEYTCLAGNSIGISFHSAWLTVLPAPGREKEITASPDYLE

Measured: binding result

B1: ch3B6 (antibody, V domains shown)
VH: EVQLVESGGGLVQPGRSLKLSCAASGFTFSNYYMAWVRQAPKKGLEWVATINPSGTRTYYPDSVKGRFTLSRDSAKSSLYLQMNSLKSEDTATFYCARLYNNYAFDYWGQGVMVTVSS
VL: DVQMTQSPALAVSPGERVSISCRASESVSTLMHWYQQKPGQQPKLLIYGTSNLESGVPARFSGSGSGTDFTLNIDPVEADDTATYFCQQSWNDPPTFGGGTKLELK
no binding: FGFR1-Fc | FGFR3-Fc | FGFR2-Fc
